The target in this experiment is T1, C1q (full-length; ligand binding and scaffolding part of the C1 complex) (human (endogenous in human serum), UniProt P02745 23-245; P02746 28-253; P02747 29-245).
T1 construct: complement C1q subunit A, human; complement C1q subunit B, human; complement C1q subunit C, human; In serum and in the bought C1 protein C1q stands in the C1 complex with the proteases C1r and C1s (C1r2s2); in the ELISAs it was detected with anti-C1q; also called gC1q (globular head domain of full-length C1q); source: endogenous, normal human serum (Complement Technology); purified C1 protein …
The experiment can be described thus: ELISA; titration of purified cL3-Bt bound to streptavidin-coated plates, 1% normal human serum in RPMI, 37 °C 1 hour, C1q detected with rabbit anti-C1q. The following applies: one partner purified.

Positions of bridges follow the written chain, without caps; N, C: chain ends.

T1 sequence (P02745 23-245, chain 1 of 3): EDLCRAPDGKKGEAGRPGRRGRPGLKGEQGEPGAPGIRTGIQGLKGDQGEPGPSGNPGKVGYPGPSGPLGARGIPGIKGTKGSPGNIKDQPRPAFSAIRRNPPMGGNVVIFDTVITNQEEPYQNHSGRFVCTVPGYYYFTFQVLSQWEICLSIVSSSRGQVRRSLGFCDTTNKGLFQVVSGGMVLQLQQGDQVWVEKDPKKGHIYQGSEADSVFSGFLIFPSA
T1 sequence (P02746 28-253, chain 2 of 3): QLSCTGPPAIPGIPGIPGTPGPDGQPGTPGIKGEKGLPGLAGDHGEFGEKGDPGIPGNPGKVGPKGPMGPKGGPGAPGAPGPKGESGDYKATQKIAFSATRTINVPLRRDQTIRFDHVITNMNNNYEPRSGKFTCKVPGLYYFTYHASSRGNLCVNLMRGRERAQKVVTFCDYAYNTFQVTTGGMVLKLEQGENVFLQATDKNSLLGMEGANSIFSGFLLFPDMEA
T1 sequence (P02747 29-245, chain 3 of 3): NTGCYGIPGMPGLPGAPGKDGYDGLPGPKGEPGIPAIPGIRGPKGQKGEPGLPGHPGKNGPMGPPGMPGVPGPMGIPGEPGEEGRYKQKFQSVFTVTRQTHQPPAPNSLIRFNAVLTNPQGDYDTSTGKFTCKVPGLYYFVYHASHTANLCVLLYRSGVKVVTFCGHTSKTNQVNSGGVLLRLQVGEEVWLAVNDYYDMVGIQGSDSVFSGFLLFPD

By EC50 is commonly meant the midpoint of the concentration-response curve. Read a low EC50 as an effect from little substance. For {CH2CO}-YTVTFYPDPFTLQFIACGS-{K(biotin)} (thioether N-17) [cyclic-L3, biotinylated (cL3-Bt)], the half-maximal effective concentration (EC50) is approximately 6 µM.

(Values after article PMC11289891, “Selection and characterization of a peptide-based complement modulator targeting C1 of the innate immune system†” (RSC Chemical Biology, 2024).)
